From patent US20050058639A1 (AstraZeneca / MedImmune, published 2005)

T1: human MIP-1-alpha (human, UniProt P10147 24-92, limits assumed)
T1 construct: also called hMIP-1-alpha
T1 sequence (looked up): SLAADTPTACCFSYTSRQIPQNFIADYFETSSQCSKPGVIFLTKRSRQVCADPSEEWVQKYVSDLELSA

T2: human GRO/MGSA (human, UniProt P09341 35-107)
T2 construct: also called hGRO/MGSA; GRO-alpha
T2 sequence (looked up): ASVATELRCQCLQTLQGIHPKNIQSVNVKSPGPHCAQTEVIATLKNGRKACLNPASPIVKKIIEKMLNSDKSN

T3: recombinant human MCP-2 (human, UniProt P80075 24-99)
T3 construct: also called rhMCP-2
T3 sequence (looked up): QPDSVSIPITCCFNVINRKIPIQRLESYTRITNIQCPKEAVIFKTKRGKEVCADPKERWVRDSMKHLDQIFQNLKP

T4: human RANTES (human, UniProt P13501 24-91)
T4 construct: also called hRANTES
T4 sequence (looked up): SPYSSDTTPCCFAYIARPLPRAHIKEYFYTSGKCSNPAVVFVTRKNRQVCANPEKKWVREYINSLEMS


Legend:
recombinant human MCP-3 = biological target: T5, recombinant human MCP-3 (human, UniProt P80098 24-99); assay: ELISA, coated antigen
T5 construct: also called rhMCP-3
Method: (§1) Determining cross-reactivity of anti-MCP-1 antibodies with other chemokines. ELISA plates (Fisher Cat. No. 12-565-136) were coated with 50 μl/well of MCP-1, MCP-2, MCP-3, MCP-4, RANTES, GRO-alpha, MIP-1 alpha, eotaxin, rat MCP-1 and mouse JE (2 μg/ml) in coating buffer (0.1 M carbonate buffer, pH 9.6, NaHCO₃ 8.4 g/L, then incubated at 4° C. overnight. After incubation, the plates were washed with washing buffer (0.05% Tween 20 in PBS) three times. 200 μL/well blocking buffer (0.5% BSA, 0.1% Tween 20, 0.01% Thimerosal in 1×PBS) were added and the plates incubated at room temperature for 1 hour. After incubation, the plates were washed with washing buffer three times. 50 μL/well of hybridoma supernatants, and positive and negative controls (positive control was anti-MCP-1 antibody purchased from R&D Sciences, and negative control was an antibody to Keyhole Limpet Hemocyanin produced at Abgenix) were added and the plates incubated at room temperature for 2 hours. After incubation, the plates were washed three times with washing buffer. […] After incubation, the plates were washed three times with washing buffer and 100 μL/well of TMB (BioFX Lab. Cat. #TMSK-0 100-01) was added and the plates allowed to develop for about 10 minutes.

human eotaxin = biological target: T6, human eotaxin (human, UniProt P51671 24-97); assay: ELISA, coated antigen
T6 construct: also called hEotaxin
Method: as §1

human MIP-1-alpha = biological target: T1, human MIP-1-alpha; assay: ELISA, coated antigen
Method: as §1

recombinant human MCP-4 = biological target: T7, recombinant human MCP-4 (human, UniProt Q99616 24-98, limits assumed); assay: ELISA, coated antigen
T7 construct: also called rhMCP-4
Method: as §1

[1] = biological target: T8, recombinant mouse JE/MCP-1 (mouse, UniProt P10148 24-148); assay: ELISA, coated antigen
T8 construct: also called rmJE/MCP-1
Method: as §1

human GRO/MGSA = biological target: T2, human GRO/MGSA; assay: ELISA, coated antigen
Method: as §1

recombinant human MCP-2 = biological target: T3, recombinant human MCP-2; assay: ELISA, coated antigen
Method: as §1

human RANTES = biological target: T4, human RANTES; assay: ELISA, coated antigen
Method: as §1

rat MCP-1 = rat MCP-1 (rat, UniProt P14844 24-148); assay: ELISA, coated antigen
Method: as §1

[2] = biological target: T9, human monocyte chemo-attractant protein-1 (MCP-1) (human, UniProt P13500 24-99); assay: ELISA, coated antigen
T9 construct: 76-residue recombinant protein from E. coli, bought (PeproTech); also called hMCP-1(MCAF); human MCP-1
Method: as §1

[3] = biological target: T9, human monocyte chemo-attractant …; assay: ELISA, hybridoma supernatant on coated MCP-1
Method: Selection of candidate antibodies for ELISA. After 14 days of culture, hybridoma supernatants were screened for MCP-1-specific monoclonal antibodies. The ELISA plates (Fisher, Cat. No. 12-565-136) were coated with 50 μl/well of MCP-1 (2 μg/mL) in Coating Buffer (0.1 M Carbonate Buffer, pH 9.6, NaHCO₃8.4 g/L), then incubated at 4° C. overnight. After incubation, the plates were washed with Washing Buffer (0.05% Tween 20 in PBS) three times. 200 μl/well Blocking Buffer (0.5% BSA, 0.1% Tween 20, 0.01% Thimerosal in 1× PBS) were added and the plates incubated at room temperature for 1 hour. After incubation, the plates were washed with Washing Buffer three times. 50 μL/well of hybridoma supernatants, and positive and negative controls were added and the plates incubated at room temperature for 2 hours.
The positive control used throughout was XMG2 MCP-1 Group 1, footpad N160-7 and the negative control was XMG2 KLH Group 1, footpad L627-6. After incubation, the plates were washed three times with Washing Buffer. […] In the secondary screen, three sets of samples (positives in first screening) were screened, one set for hIgG detection, one set for hKappa detection, and one set for hlambda detection. After incubation, the plates were washed three times with Washing Buffer. 100 μL/well of TMB (BioFX Lab. Cat. #TMSK-0100-01) were added and the plates allowed to develop for about 10 minutes (until negative control wells barely started to show color), then 50 μL/well stop solution (TMB Stop Solution (BioFX Lab. Cat. #STPR-0100-01) were added and the plates read on an ELISA plate reader at wavelength 450 nm. The OD readings from the positive wells are presented in Table 9.

[4] = biological target: T9, human monocyte chemo-attractant …; assay: cell-based or functional assay

T9 sequence (P13500 24-99): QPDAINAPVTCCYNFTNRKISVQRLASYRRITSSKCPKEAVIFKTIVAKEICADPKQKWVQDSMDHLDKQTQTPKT
Chain of rat MCP-1 (P14844 24-148 limits assumed): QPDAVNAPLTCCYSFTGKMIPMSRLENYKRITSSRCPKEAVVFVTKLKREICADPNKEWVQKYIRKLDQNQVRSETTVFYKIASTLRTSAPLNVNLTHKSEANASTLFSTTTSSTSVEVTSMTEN
T5 sequence (P80098 24-99 limits assumed): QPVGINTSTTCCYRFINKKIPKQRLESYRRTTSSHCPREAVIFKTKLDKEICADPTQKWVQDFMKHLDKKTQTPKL

Binder | ELISA OD (recombinant human MCP-3) | ELISA OD (human eotaxin) | ELISA OD (human MIP-1-alpha) | ELISA OD (recombinant human MCP-4) | ELISA OD [1] | ELISA OD (human GRO/MGSA) | ELISA OD (recombinant human MCP-2) | ELISA OD (human RANTES) | ELISA OD (rat MCP-1) | ELISA OD [2] | ELISA OD-MCP-1 [3] | IC50 Ca++ Flux [4] | IC50 Chemotaxis [4]
anti-MCP-1 mAb 1.6.1 (antibody, V domains shown) VH: QVQLVQSGAEVKKPGASVKVSCKVSGYTLTELSMHWVRQAPGKGLEWMGGFDPEDGETIYAQKFQGRVTMTEDTSTDTAYMELSSLRSEDTAVYYCATWYSGIYLAFDIWGQGTMVTVSS VL: EIVLTQSPDFQSVTPKEKVTITCRASQSIGSSLHWYQQKPDQSPKLLIKYASQSFSGVPSRFSGSGSGTDFTLTINSLEAEDAATYYCHQSSSLPHTFGGGTKVEIKR | 0.046 OD450 | 0.042 OD450 | 0.046 OD450 | 0.044 OD450 | 0.042 OD450 | 0.046 OD450 | 0.042 OD450 | 0.046 OD450 | 0.062 OD450 | 0.375 OD450 | 3.92 OD450 | 1 µg/mL | 12 µg/mL
anti-MCP-1 mAb 1.1.1 (antibody, human IgG2, kappa, V domains shown) VH: QVQLVQSGAEVKKPGASVKVSCKVSGYTLTELSMHWVRQAPGNGLEWMGGFDPEDGETIYAQRFQGRVVMTEDPSTDTAYMELSSLRSEDTAVYYCATNEFWSGYFDYWGQGTLVTVSS VL: DIVMTQSPDSLAMSLGERATINCKSSQSVLYSSNNKNYLVWYQQKPGQPPKLLIYWASIRESGVPDRFSSSGSETDFTLTISSLQAEDVAVYYCQQYFSSPWTFGQGTKVEIKR | 0.064 OD450 | 0.042 OD450 | 0.044 OD450 | 0.052 OD450 | 0.045 OD450 | 0.047 OD450 | 0.051 OD450 | 0.044 OD450 | 0.051 OD450 | 0.944 OD450 | 3.64 OD450 | 0.24 µg/mL | 0.27 µg/mL
anti-MCP-1 mAb 1.10.1 (antibody, V domains shown) VH: QVQLVQSGAEVKKPGASVKVSCKVSGYTLTELSMHWVRQAPGKGLEWMGGFDPEDGETIYAQKFQGRVTMTEDTSTDTAYMELSSLRSEDTAVYYCATNEFWSGYFDYWGQGTLVTVSS VL: not shown | 0.047 OD450 | 0.05 OD450 | 0.043 OD450 | 0.052 OD450 | 0.041 OD450 | 0.043 OD450 | 0.04 OD450 | 0.042 OD450 | 0.059 OD450 | 1.26 OD450 | 3.85 OD450 | 0.18 µg/mL | 1.2 µg/mL
anti-MCP-1 mAb 1.5.1 (antibody, V domains shown) VH: QVQLVQSGAEVKKPGASVKVSCKVSGYTLTELSMHWVRQAPGKGLEWMGGFDPEDDETIYAQKFQGRVTMTEDTSTDTAYMELSSLRSEDTAVYFCATNDFWSGYFDCWDQGTLVTVSS VL: not shown | 0.069 OD450 | 0.043 OD450 | 0.041 OD450 | 0.05 OD450 | 0.043 OD450 | 0.048 OD450 | 0.047 OD450 | 0.049 OD450 | 0.045 OD450 | 1.18 OD450 | 0.51 OD450 | 0.21 µg/mL | 0.34 µg/mL
anti-MCP-1 mAb 1.8.1 (antibody, V domains shown) VH: QVQLVQSGAEVKKPGASVKVSCKVSGHIFTELSIHWVRQAPGKGLEWMGGFDPEDGETIYAQKFQGRVTMTEDTSTDTVYMELSSLRSEDTAVYYCATNDFWSGYFDYWGQGTLVTVSS VL: DIVMTQSPGSLAVSLGERATINCKSSQSILFRSNNKNYLTWYQQKPGQPPKLLIYWASIRESGVPDRFSGSGSGSNFTLTITSLQAEDVAIYYCQQYYSSPWTFGQGTKVEIKR | 0.054 OD450 | 0.047 OD450 | 0.045 OD450 | 0.046 OD450 | 0.045 OD450 | 0.06 OD450 | 0.048 OD450 | 0.045 OD450 | 0.049 OD450 | 1.16 OD450 | 3.47 OD450 | 0.26 µg/mL | 0.88 µg/mL

Further lines, results first:

ELISA OD (recombinant human MCP-3) | ELISA OD (human eotaxin) | ELISA OD (human MIP-1-alpha) | ELISA OD (recombinant human MCP-4) | ELISA OD [1] | ELISA OD (human GRO/MGSA) | ELISA OD (recombinant human MCP-2) | ELISA OD (human RANTES) | ELISA OD (rat MCP-1) | ELISA OD [2] | ELISA OD-MCP-1 [3] | IC50 Ca++ Flux [4] | IC50 Chemotaxis [4] | Binder
0.047 OD450 | 0.044 OD450 | 0.042 OD450 | 0.045 OD450 | 0.043 OD450 | 0.046 OD450 | 0.046 OD450 | 0.046 OD450 | 0.06 OD450 | 1.16 OD450 | 4 OD450 | 0.11 µg/mL | 0.5 µg/mL | anti-MCP-1 mAb 1.13.1 (antibody, V domains shown) VH: QVQLVQSGAEVKKPGASVKVSCKVSGHTLTELSMHWVRQAPGKGLEWMGGFDPEDDETIYAQKFQDRVTMTEDTSTDTAYMELSSLRSEDTAVYYCATNDFWSGYFDCWGQGTLVTVSS VL: DIVLTQSPDSLAVCLGERATINCKSSQSVLYSPNNKNFLVWYQQRPGQPPKLLIYWASTRESGVPDRFSGSGSGTDFTLTISSLQAEDVAVYYCQQYYSSPWTFGQGTKVEIKR
0.043 OD450 | 0.049 OD450 | 0.042 OD450 | 0.043 OD450 | 0.041 OD450 | 0.042 OD450 | 0.041 OD450 | 0.042 OD450 | 0.052 OD450 | 1.34 OD450 | 3.9 OD450 | 0.098 µg/mL | 0.81 µg/mL | anti-MCP-1 mAb 1.11.1 (antibody, V domains shown) VH: QVQVVQSGAEVKNPGASVKVSCKVSGSTLTELSMHWVRQAPGKGLEWMGGFDPEDGETIYAQKFQGRVTMTEDTSTDTVYMELSSLRSEDTAVYYCATNDFWSGYFDYWGQGTLVTVSS VL: DIVMTQSPDSLAVSLGERATITCKSSQTVLYSSNNKNYLVWYQQKSGQPPKLLIHWASIRESGVPDRFSGSGSGTDFTLTISSLQAEDVAVYYCQQYYSSPWTFGQGTKVEIKR
0.046 OD450 | 0.044 OD450 | 0.046 OD450 | 0.044 OD450 | 0.042 OD450 | 0.046 OD450 | 0.042 OD450 | 0.046 OD450 | 0.062 OD450 | 0.933 OD450 | 4 OD450 | 0.13 µg/mL | 0.35 µg/mL | anti-MCP-1 mAb 1.12.1 (antibody, V domains shown) VH: QVQLVQSGAEVKKPGASVKVSCKVSGYTLTELSMHWVRQAPGKGLEWMGGFDPEDGETIYAQKFQGRVTMTEDTSTDTAYMELSSLRSEDTAVYYCATNDFWSGYYNYWGQGTLVTVSS VL: not shown
0.449 OD450 | 0.194 OD450 | 0.041 OD450 | 0.041 OD450 | 0.059 OD450 | 0.042 OD450 | 0.535 OD450 | 0.043 OD450 | 0.07 OD450 | 0.235 OD450 | 3.96 OD450 |  |  | anti-MCP-1 mAb 3.2 (antibody, V domains shown, also called 3.2 (neat)) VH: QVQLVQSGAEVKKPGASVKVSCKVSGYTLSELSMHWVRQAPGKGLEWMGGFDPEDGEIIHAQKFQGRVTMTEDTSTDTAYMELSSLRSEDTAVYYCATGDFWSGYYLDWWGQGTLVTVSS VL: EIVMMQSPATLSVSPGERATLSCRASQSVNSNLAWYQQKPGQAPRLLINGASTRATGIPARFSGSGSGTEFTLTISSLQSEDFAIYYCQQYNDWPTFTFGGGTKVEINR
